{
  "source": "patent US20260125478A1",
  "about": "(VIELA BIO, published 2026)",
  "binders": {"B1": {"name": "32LO0352 (MEDI9600) (antibody, human IgG1, V domains shown)", "VH": "QVQLVQSGAEVKKPGASVKVSCKASGYTFTNYGMNWVRQAPGQRLEWMGWLNTYTGESWYPDDFKGRVTITRDTSASTAYMELSSLRSEDTAVYYCARGDYGYDDPLDYWGQGTLVTVSS", "VL": "DIVMTQSPLSLPVTPGEPASISCRSSKSLLHTNQNTYLHWFLQKPGQSPQLLIYRMSVLASGVPDRFSGSGSGTDFTLKISRVEAEDVGVYYCMQHLEYPLTFGQGTKLEIK", "notes": "Fluorescently labelled in the neutrophil flow cytometry assay and Alexa 647 labelled for confocal microscopy; also called clone 32LO0352; CD32LO0352"}},
  "key": {"[1]": {"target": "T1, human FcγRIIA 131H on blood cells of 131H/H donors (human, UniProt P12318 34-317)", "T1 sequence (looked up)": "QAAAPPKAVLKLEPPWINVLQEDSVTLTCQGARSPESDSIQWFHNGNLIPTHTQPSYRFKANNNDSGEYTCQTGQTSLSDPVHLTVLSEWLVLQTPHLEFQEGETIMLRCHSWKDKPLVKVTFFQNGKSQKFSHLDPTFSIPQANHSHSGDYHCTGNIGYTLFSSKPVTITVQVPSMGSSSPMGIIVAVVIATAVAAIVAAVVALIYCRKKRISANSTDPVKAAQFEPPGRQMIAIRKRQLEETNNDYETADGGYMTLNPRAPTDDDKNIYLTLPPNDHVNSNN", "assay": "cell-based or functional assay"}, "[2]": {"target": "T2, recombinant human FcγRIIIA-158V allotype (ELISA coat, generated at MedImmune) (human, UniProt P08637 17-208, limits assumed)", "T2 construct": "also called FcγRIII-158V allotype; CD16A 158V", "T2 sequence (P08637 17-208 F176V limits assumed)": "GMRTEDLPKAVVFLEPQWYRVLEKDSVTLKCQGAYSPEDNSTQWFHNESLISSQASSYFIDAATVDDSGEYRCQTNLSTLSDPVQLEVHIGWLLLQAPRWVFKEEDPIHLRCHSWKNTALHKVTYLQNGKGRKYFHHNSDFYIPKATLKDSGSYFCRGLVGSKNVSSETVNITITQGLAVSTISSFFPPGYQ", "assay": "ELISA on plate-coated FcγRIIIA-158V (2 µg/ml), detection with goat anti-human Fc-HRP", "description": "(§1) Plates were washed five times with 200 μl of wash buffer (PBS containing 0.1% Tween 20), blocked with blocking buffer containing 5% milk in PBS for 1 hour at room temperature, and washed five additional times with wash buffer. Three-fold serial dilutions of the test antibody or control antibody (R347-Tm) were added to wells in duplicate. Plates were incubated for 2 hours at room temperature, and washed five times with wash buffer. Binding of the antibodies to the FcγRs was detected by adding 50 μl of goat anti-human Fc-HRP (Jackson ImmunoResearch Laboratories, PA) to the wells and incubating for 1 hour at room temperature, washing 10 times, and adding 50 μl TMB substrate (Pierce Biotechnology, MA). The color reaction was stopped with 50 μl 0.2M […] and the absorbance was measured using a spectrophotometer (Molecular Devices, CA) at […]."}, "[3]": {"target": "T3, human FcγRIIA on primary human cells (neutrophils; sorted CD14+ monocytes), allotype not stated (human, UniProt P12318 34-317)", "T3 construct": "whole, on cells; also called human FcγRIIA at the neutrophil surface; FcγRIIA-expressing neutrophils", "T3 sequence (looked up)": "T1 sequence (looked up)", "assay": "flow cytometry, fluorescently labelled antibody on human neutrophils, 30 min at 4 °C, without IVIG", "description": "Human neutrophils were re-suspended in blocking buffer [phosphate-buffered saline (PBS) supplemented with 10% fetal bovine serum] and transferred to round-bottom 96-well culture plates (0.5×10^6 cells/well). […] After incubation, cells were washed with cold PBS and the mean fluorescence intensity (MFI) of cell-bound antibodies was assessed by flow cytometry using an LSRII (BD; Franklin Lakes, NJ). The EC₅₀ for binding was calculated using a non-linear fit equation in GraphPad Prism 6 software."}, "[4]": {"target": "T4, recombinant FcγRIIB (ELISA coat, generated at MedImmune) (UniProt P31994 43-217, limits assumed)", "T4 construct": "also called CD32B", "T4 sequence (looked up)": "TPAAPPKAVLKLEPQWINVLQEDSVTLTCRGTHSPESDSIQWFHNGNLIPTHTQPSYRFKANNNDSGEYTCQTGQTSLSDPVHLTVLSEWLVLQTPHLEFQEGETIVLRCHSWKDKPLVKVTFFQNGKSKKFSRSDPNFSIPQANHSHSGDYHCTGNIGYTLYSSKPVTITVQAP", "assay": "ELISA on plate-coated FcγRIIB (2 µg/ml), detection with goat anti-human Fc-HRP", "description": "as §1"}, "[5]": {"target": "T5, human FcγRIIA 131R on blood cells of 131R/R donors (human, UniProt P12318 34-317)", "T5 sequence": "T1 sequence (looked up) with H134R", "assay": "cell-based or functional assay"}},
  "note": "Where a chain is given by its changes, count along the chain named.",
  "data": [
    {"binder": "B1", "values": [
      {"measurement": "IC50 of the loss of surface FcγRIIA (M.F.I of IV.3-Alexa 647) on monocytes, whole blood, 2 h at 37 °C", "setting": "[1]", "value": 0.0809, "unit": "nM"},
      {"measurement": "binding result", "setting": "[2]", "value": "no binding (tested: about 15000 ng/ml)"},
      {"measurement": "EC50", "setting": "[3]", "value": 0.0293, "unit": "nM"},
      {"measurement": "binding result", "setting": "[4]", "value": "no binding (tested: about 15000 ng/ml)"},
      {"measurement": "IC50 of the loss of surface FcγRIIA (M.F.I of IV.3-Alexa 647) on monocytes, whole blood, 2 h at 37 °C", "setting": "[5]", "value": 0.0593, "unit": "nM"}
    ]}
  ]
}
